Measured values from PMC11840039.
Like-named read-outs stand apart in the source and are kept apart here.

How the values were obtained:
Assay in all cases: cryo-EM structure
[1] = target: Human Slo1 (hSlo1), BK channel α subunit, residues 1-1056 (human)
[2] = target: Human Slo1 (hSlo1), BK channel α subunit, residues 1-1056 (human); remark: listed apart in the source
[3] = target: Human Slo1 (hSlo1), BK channel α subunit, residues 1-1056 (human); remark: listed apart in the source
[4] = target: Human Slo1 (hSlo1), BK channel α subunit, residues 1-1056 (human); remark: listed apart in the source

Measured: stoichiometry N

Human Slo1 (hSlo1), BK channel α subunit, residues 1-1056 (natural protein)
4: all assays above
